Measurements as given in the Human Domainome abundance scans (Beltran et al. 2025).
± gives the uncertainty stated by the source.

B1: Advillin, residues 785 to 819; numbered along this chain, O75366 (parent)
chain: LSEQDFVSVFGITRGQFAALPGWKQLQMKKEKGLF

Variants of: B1
Test: abundance fitness (aPCA) (normalised: wild type 0, dead -1); higher = more abundant; growth selection in yeast, the domain comes from the species named
Settings: Homo sapiens

Abundance fitness of substitutions, site by site:
K30: H -0.121 ± 0.097, A 0.078 ± 0.055, E 0.147 ± 0.082, V -0.076 ± 0.063, F -0.345 ± 0.12, M 0.051 ± 0.089, C -0.321 ± 0.077, N 0.04 ± 0.33, Q 0.026 ± 0.078, R 0.033 ± 0.058, S -0.114 ± 0.063, G -0.159 ± 0.055, P -0.453 ± 0.069, I -0.266 ± 0.17, T -0.215 ± 0.096, L -0.192 ± 0.058
Q25: L -0.456 ± 0.074, N -0.407 ± 0.12, S -0.735 ± 0.14, A -0.525 ± 0.066, C -0.846 ± 0.17, R -0.187 ± 0.07, T -0.405 ± 0.15, W -1.4 ± 0.15, V -0.604 ± 0.11, M -0.507 ± 0.12, G -0.568 ± 0.073, E -0.593 ± 0.069, K -0.31 ± 0.081
A19: F -0.245 ± 0.26, Y -0.409 ± 0.12, T -0.254 ± 0.069, P -0.749 ± 0.11, N -0.052 ± 0.18, S -0.068 ± 0.078, L -0.137 ± 0.082, G -0.114 ± 0.055, W -0.654 ± 0.096, I -0.5 ± 0.35, M -0.174 ± 0.096, E 0.021 ± 0.063, H -0.119 ± 0.11, Q -0.367 ± 0.14
F35: L 0.197 ± 0.14, W -0.13 ± 0.17, K -1 ± 0.38, I 0.312 ± 0.2, S 0.355 ± 0.18, Q -0.071 ± 0.3, E 0.129 ± 0.094, P 0.054 ± 0.084, V 0.141 ± 0.097, N -0.478 ± 0.43, R 0.126 ± 0.11, A -0.334 ± 0.29, C 0.179 ± 0.086
E31: L -0.42 ± 0.064, Y -0.746 ± 0.22, D 0.02 ± 0.1, W -0.709 ± 0.14, R -0.464 ± 0.067, A -0.173 ± 0.059, K -0.271 ± 0.21, C -0.443 ± 0.088, T -0.645 ± 0.13, I -0.421 ± 0.21, V -0.367 ± 0.12, P -0.645 ± 0.096, H -0.563 ± 0.5, G -0.283 ± 0.055, M -0.453 ± 0.088
K24: S -0.304 ± 0.097, C -0.342 ± 0.11, V -0.279 ± 0.12, I -0.148 ± 0.14, Q -0.072 ± 0.086, D -0.143 ± 0.1, E -0.142 ± 0.097, Y -0.805 ± 0.49, N -0.433 ± 0.23, M -0.098 ± 0.12, T -0.446 ± 0.3, R -0.159 ± 0.066, P -0.475 ± 0.12, F -0.403 ± 0.16, H -0.61 ± 0.34, G -0.488 ± 0.089
P21: C -0.436 ± 0.11, F -0.696 ± 0.21, K -0.413 ± 0.095, D -0.54 ± 0.11, W -0.617 ± 0.12, G -0.32 ± 0.067, S -0.225 ± 0.079, M -0.64 ± 0.16, N -0.51 ± 0.23, A -0.414 ± 0.061, I -0.536 ± 0.15, L -0.509 ± 0.064, Y -0.668 ± 0.11, E -0.246 ± 0.057, Q -0.271 ± 0.17, R -0.614 ± 0.056, H -0.534 ± 0.085
G22: V -0.021 ± 0.082, H 0.082 ± 0.15, P 0.067 ± 0.065, L -0.074 ± 0.091, Y -0.093 ± 0.1, D -0.104 ± 0.14, Q 0.01 ± 0.079, M -0.084 ± 0.098, C -0.44 ± 0.16, F -0.138 ± 0.079, S -0.108 ± 0.078, N -0.2 ± 0.11, W -0.405 ± 0.076, K 0.064 ± 0.073, E 0.069 ± 0.079, I -0.162 ± 0.1, R -0.099 ± 0.062, A -0.016 ± 0.083, T 0.005 ± 0.086
L20: S -0.328 ± 0.062, W -0.91 ± 0.16, T -0.424 ± 0.079, I -0.902 ± 0.31, M -0.211 ± 0.056, Q -0.368 ± 0.1, A -0.593 ± 0.077, C -0.847 ± 0.11, F -0.832 ± 0.18, N -0.248 ± 0.21, P -0.759 ± 0.12, G -0.408 ± 0.076, Y -0.106 ± 0.19, D -0.113 ± 0.16, K -0.639 ± 0.099, E -0.404 ± 0.09, R -0.563 ± 0.059, V -0.753 ± 0.11, H -0.487 ± 0.1
G33: R -0.235 ± 0.071, V -0.525 ± 0.11, W -0.541 ± 0.08, S -0.108 ± 0.074, Q 0.186 ± 0.24, E -0.032 ± 0.078, N -0.401 ± 0.1, L -0.305 ± 0.083, T -0.308 ± 0.098, K -0.325 ± 0.091, A -0.195 ± 0.059, P 0.191 ± 0.14
L26: Y -0.174 ± 0.15, C -0.606 ± 0.089, G -0.146 ± 0.067, A 0.034 ± 0.063, H -0.132 ± 0.14, F -0.185 ± 0.15, I -0.181 ± 0.16, Q 0.12 ± 0.11, D -0.01 ± 0.083, R -0.033 ± 0.058, P -0.914 ± 0.18, K 0.068 ± 0.089, V 0.073 ± 0.057, M -0.114 ± 0.063, S 0.069 ± 0.07, T -0.075 ± 0.064
M28: C -0.75 ± 0.16, T -1.03 ± 0.15, H -0.549 ± 0.2, R -1.14 ± 0.11, V -1.03 ± 0.18, S -1.14 ± 0.19, A -0.905 ± 0.15, P -1.19 ± 0.26, K -0.708 ± 0.19, L -0.47 ± 0.11, I -0.619 ± 0.27, G -1.13 ± 0.097
K29: G -0.266 ± 0.065, Y -0.221 ± 0.21, L -0.289 ± 0.071, C -0.024 ± 0.06, N -0.09 ± 0.081, H -0.099 ± 0.11, T -0.043 ± 0.06, W -0.075 ± 0.07, S -0.017 ± 0.068, I -0.218 ± 0.12, R -0.023 ± 0.048, Q 0.026 ± 0.07, F -0.005 ± 0.26, A -0.183 ± 0.061, M -0.187 ± 0.16, D -0.356 ± 0.18, V 0 ± 0.077, P -0.497 ± 0.11
K32: S 0.015 ± 0.08, F -0.48 ± 0.47, W -0.365 ± 0.092, E -0.175 ± 0.081, G -0.156 ± 0.07, A 0.017 ± 0.066, Q -0.122 ± 0.072, M 0.072 ± 0.1, Y -0.298 ± 0.098, I -0.536 ± 0.32, R 0.06 ± 0.052, P -0.132 ± 0.14, V -0.103 ± 0.073, L -0.047 ± 0.087, D -0.624 ± 0.14, N 0.122 ± 0.13, T -0.179 ± 0.076
W23: T -0.228 ± 0.067, R -0.202 ± 0.058, K -0.042 ± 0.077, L -0.233 ± 0.064, I -0.284 ± 0.1, P -0.188 ± 0.065, V -0.11 ± 0.078, F -0.22 ± 0.19, Y -0.211 ± 0.14, A -0.134 ± 0.062, C -0.235 ± 0.11, M -0.108 ± 0.14, E 0.081 ± 0.063, H -0.101 ± 0.086, Q -0.213 ± 0.093, N -0.319 ± 0.09, G -0.238 ± 0.056, D 0.005 ± 0.098, S -0.092 ± 0.061
L34: C 0.355 ± 0.11, V -0.122 ± 0.069, E 0.266 ± 0.08, K -0.003 ± 0.064, Q 0.098 ± 0.078, N 0.027 ± 0.088, G 0.147 ± 0.06, W 0.019 ± 0.063, H 0.042 ± 0.1, M 0.029 ± 0.084, R -0.112 ± 0.058, S 0.177 ± 0.069, A 0.128 ± 0.061, T 0.143 ± 0.064, D 0.284 ± 0.14, F 0.321 ± 0.12, P 0.033 ± 0.083
Q27: V -0.139 ± 0.058, T -0.459 ± 0.07, F -0.416 ± 0.3, W -0.37 ± 0.066, E 0.098 ± 0.075, M -0.293 ± 0.11, S -0.183 ± 0.063, D -0.3 ± 0.21, G -0.333 ± 0.061, K -0.064 ± 0.063, R -0.186 ± 0.052, P -0.589 ± 0.083, A -0.125 ± 0.061, L -0.297 ± 0.061, H 0.108 ± 0.26, C -0.432 ± 0.084
